Assay results reported in article doi:10.1101/2025.07.31.667833, “Coiled-coil-mediated phase separation of Spef1 for non-centrosomal microtubule organization and function” (bioRxiv, 2025).

B1: full-length wild-type Spef1 (mouse) (natural protein, UniProt Q99JL1 1-234, looked up)
chain: MESSVDEEALHQLYLWVDNIPLSRPKRNLSRDFSDGVLVAELIKFYFPKMVEMHNYVPANSLQQKLSNWGHLNRKVLNKLNFSVPDDVMRKIAQCSPGVVELVLIPLRQRLEERQRRQKLGVGSLQELAPQDSSGYMDMGLPQKVRGEGAPALGEQLREGRPLASRPPGYNQALQGDPSFVLQIAEKEQELLASQETVQVLQMKVKRLEHLLQLKNVRIDDLSRRLQQAERKQR
notes: Spef1 (sperm flagellar protein 1, CLAMP), mouse, full length; also called WT; CLAMP; source: E. coli BL21(DE3), purified (Ni2+-Sepharose, size-exclusion chromatography)
B2: Spef1 E186A/E188A/E190A mutant (full-length) (natural protein, mouse, UniProt Q99JL1 1-234, looked up)
chain: MESSVDEEALHQLYLWVDNIPLSRPKRNLSRDFSDGVLVAELIKFYFPKMVEMHNYVPANSLQQKLSNWGHLNRKVLNKLNFSVPDDVMRKIAQCSPGVVELVLIPLRQRLEERQRRQKLGVGSLQELAPQDSSGYMDMGLPQKVRGEGAPALGEQLREGRPLASRPPGYNQALQGDPSFVLQIAAKAQALLASQETVQVLQMKVKRLEHLLQLKNVRIDDLSRRLQQAERKQR
notes: Spef1, mouse, full length, with E186A, E188A and E190A on the coiled-coil surface; also called charge-changing mutant; source: E. coli BL21(DE3), purified (Ni2+-Sepharose, size-exclusion chromatography)
B3: Spef1 K206A/R207A mutant (full-length) (natural protein, mouse, UniProt Q99JL1 1-234, looked up)
chain: MESSVDEEALHQLYLWVDNIPLSRPKRNLSRDFSDGVLVAELIKFYFPKMVEMHNYVPANSLQQKLSNWGHLNRKVLNKLNFSVPDDVMRKIAQCSPGVVELVLIPLRQRLEERQRRQKLGVGSLQELAPQDSSGYMDMGLPQKVRGEGAPALGEQLREGRPLASRPPGYNQALQGDPSFVLQIAEKEQELLASQETVQVLQMKVAALEHLLQLKNVRIDDLSRRLQQAERKQR
notes: Spef1, mouse, full length, with K206A and R207A on the coiled-coil surface; also called KR; charge-changing mutant; source: E. coli BL21(DE3), purified (Ni2+-Sepharose, size-exclusion chromatography)

Target: the molecule itself
Assay: SEC-MALS; ~1 mg/ml protein in 50 mM Tris-HCl pH 8.0, 500 mM NaCl, 1 mM EDTA, 1 mM DTT; WTC SEC column, 18-angle light scattering; oligomeric state (dimer or monomer)

Stoichiometry N, 2:
B1
B2
B3
